According to paper PMC5076819:

Biological target: T1, S. gordonii SecY2-Asp4-Asp5 complex (S. gordonii) (UniProt A8AWV0)
T1 sequence 1: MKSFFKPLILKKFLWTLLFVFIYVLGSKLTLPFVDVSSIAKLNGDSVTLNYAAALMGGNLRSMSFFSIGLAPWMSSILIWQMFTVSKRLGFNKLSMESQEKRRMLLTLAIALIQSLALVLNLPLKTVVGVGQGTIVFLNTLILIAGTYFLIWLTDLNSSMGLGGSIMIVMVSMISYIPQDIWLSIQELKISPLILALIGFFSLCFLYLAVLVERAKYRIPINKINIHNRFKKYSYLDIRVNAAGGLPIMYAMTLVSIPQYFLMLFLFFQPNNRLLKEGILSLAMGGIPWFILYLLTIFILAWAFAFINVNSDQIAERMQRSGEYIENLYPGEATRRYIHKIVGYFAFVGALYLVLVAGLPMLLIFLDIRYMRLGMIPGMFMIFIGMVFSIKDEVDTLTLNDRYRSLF
T1 sequence 2: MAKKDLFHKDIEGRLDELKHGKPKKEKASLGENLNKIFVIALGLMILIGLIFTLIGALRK
T1 sequence 3: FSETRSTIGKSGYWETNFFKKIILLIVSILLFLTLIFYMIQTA

## E. coli SecA (from UniProt P10408 1-901) (enzyme)
  steady-state ATPase activity of 0.3 uM E. coli SecA on addition of 0.46 uM SecY2-Asp4-Asp5 in proteoliposomes, 25 C (SecA alone ~0.02 s^-1): 0.072 s⁻¹

B1: S. gordonii SecA2 with a C-terminal His6 tag (enzyme)
chain: MVKNFFHIRRLKKILAKIKSFEKEMSSLSDLDLQKKTDEFKKRLADGENLDQLLPEAYAVVREVDKRILGLFPYDVQVMGAIVLHEGNIAEMATGEGKTLTATMPLYLNALSGQGAMLVTPNSYLALRDAKEMGPVYRFLGLTIETAVRADESKPLETKEKRRIYQADIIYTTNSALGFDYLIENLAENKKNQFLREFNYVIIDEIDSILLDSAQTPLIISGAPRVQSNFYDMMNTLVQTLYEDEDYCYDDEKNEVWLTQKGIRAAESFLGLNHLFSKENQELVRHLNLALRAHMVYKKDQDYVVRQSENEAEVVLLDRATGRLMELTRLQGGQHQAIEAKEHVKLTQETRAMASITYQNLFKLFRKLSGMTGTGKVVESEFLETYSMSVVKIPTNCPVIRRDYPDQIYQTLPEKVFASLDEVKHYHAKGNPLLIFTGSVEMSEIYSSLLLREGIAHNLLNANNVAREAQMIAESGQLGAVTVATSMAGRGTDIKLGPGVADLGGLVVIGTERMENHRIDLQIRGRSGRQGDPGISKFFISLEDDLLKKWGPDWIKNFYRDYSPEDFKNNPILLKQRRFKKLVSKAQKASEGNAKLSRRLTLEYAQSMKIQRELTYAERNRLLEDTNEMEEEINRVIEYVIKQVAYEQSFENRADFYRFILHHFSNRAERIPQEFDIHSPKEVSHLLQAIAEQELLAKKSYLKSDKLYSQFQRLAILKAIDENWVEQVDYLQQLKSALSGFHTSNKKPIVEYYQEAYDGFEYMKERMKHQIVKNLLMSELALNPKGEVVMYFP
  steady-state ATPase activity of 0.3 uM S. gordonii SecA2 on addition of 0.46 uM SecY2-Asp4-Asp5 in proteoliposomes, 25 C (SecA2 alone ~0.01 s^-1; 4-fold increase): 0.044 s⁻¹
